In this experiment the target is Sambucus nigra agglutinin (Sambucus nigra). The experiment is described as follows: localized surface plasmon resonance.

As a reminder, the Kd is the constant that tells how readily two partners part at equilibrium.

Chain of Sambucus nigra agglutinin (Sambucus nigra) (Q41358 29-289 limits assumed, chain 1 of 2): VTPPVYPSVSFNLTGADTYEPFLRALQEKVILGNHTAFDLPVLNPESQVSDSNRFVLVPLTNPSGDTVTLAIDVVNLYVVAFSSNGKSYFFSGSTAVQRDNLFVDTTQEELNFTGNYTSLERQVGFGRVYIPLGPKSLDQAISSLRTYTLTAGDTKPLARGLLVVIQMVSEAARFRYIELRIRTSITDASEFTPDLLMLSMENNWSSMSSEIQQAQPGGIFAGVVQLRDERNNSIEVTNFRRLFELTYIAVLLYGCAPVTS
Chain of Sambucus nigra agglutinin (Sambucus nigra) (Q41358 309-570 limits assumed, chain 2 of 2): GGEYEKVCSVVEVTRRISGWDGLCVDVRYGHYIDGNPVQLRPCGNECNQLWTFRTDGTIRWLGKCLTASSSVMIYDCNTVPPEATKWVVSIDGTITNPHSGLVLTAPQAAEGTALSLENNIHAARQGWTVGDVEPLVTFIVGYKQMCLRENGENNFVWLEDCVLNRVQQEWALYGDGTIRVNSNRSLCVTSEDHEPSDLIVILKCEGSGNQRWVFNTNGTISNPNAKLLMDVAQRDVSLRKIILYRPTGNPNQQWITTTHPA

For “α-1 acid glycoprotein (from UniProt P02763 19-201) (natural protein)”, the Kd was 31 µM.
